Experimental data published in patent US6159704.

Key:
[1] = biological target: PP2Ac of COS-1 cells (endogenous PP2A catalytic subunit / PP2A activity); assay: 12CA5 immunoprecipitation from transfected COS-1 cells, PP2A activity on 32P-LRRASVA
[2] = biological target: PP2Ac of COS-1 cells (endogenous PP2A catalytic subunit / PP2A activity); assay: 12CA5 immunoprecipitation from transfected COS-1 cells, PP2A activity in the precipitate
[3] = biological target: 32P-labeled synthetic peptide LRRASVA (Kemptide Val^6, Ala^7) (Artificial Sequence)

Row | Substance | % immunoprecipitated (of PP2A activity) [1] [%] | PP2A activity in immunoprecipitates (mU) [1] [mU] | fold PP2A activity against eRF1 immunoprecipitates [2] [fold] | PP2A activity with 32P-labeled synthetic peptide (LRRASVA) as substrate, with and without 10 nM okadaic acid [3] [U/mg]
1 | HA-tagged human PR65α expressed in COS-1 cells (from UniProt P30153) | 3.7 | 17 | 10 | –
2 | PP2Ac of COS-1 cells (endogenous PP2A catalytic subunit / PP2A activity) (enzyme) | – | – | – | 2.4
